This is an account of results in article PMC10397247.

Experiment [1] addresses T1, 4H342-AA.
T1 chain: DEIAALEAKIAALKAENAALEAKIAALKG
Put plainly: two-hybrid library CCmax.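 Further: natural log of median RNA to DNA barcode read ratio; higher means stronger binding.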 To be noted: mean of both orientations.

Experiment [2] addresses T2, 4H317-AA.
T2 chain: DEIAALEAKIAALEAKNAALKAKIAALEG
As to the kind of experiment: two-hybrid library CCmax.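 Further: natural log of median RNA to DNA barcode read ratio; higher means stronger binding.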 The following applies: mean of both orientations.

Experiment [3] deals with T3, 4H2393-AA.
T3 chain: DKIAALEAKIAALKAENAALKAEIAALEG
Put plainly: two-hybrid library CCmax.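 Further: natural log of median RNA to DNA barcode read ratio; higher means stronger binding.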 To be noted: mean of both orientations.

Experiment [4] addresses T4, 4H2883-AA.
T4 chain: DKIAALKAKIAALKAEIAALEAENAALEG
Put plainly: two-hybrid library CCmax.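 Further: natural log of median RNA to DNA barcode read ratio; higher means stronger binding.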 To be noted: mean of both orientations.

The target in experiment [5] is T5, 4H780-AA.
T5 chain: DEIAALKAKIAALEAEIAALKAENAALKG
As to the kind of experiment: two-hybrid library CCmax. The following applies: mean of both orientations.

Experiment [6] has as its target T6, 4H2944-AA.
T6 chain: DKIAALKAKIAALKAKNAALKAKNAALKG
Put plainly: two-hybrid library CCmax. The following applies: mean of both orientations.

For experiment [7], the target named is T7, 4H906-AA.
T7 chain: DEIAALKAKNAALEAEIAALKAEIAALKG
Put plainly: two-hybrid library CCmax. To be noted: mean of both orientations.

Experiment [8] addresses T8, 4H48-AA.
T8 chain: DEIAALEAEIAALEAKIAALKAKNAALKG
Put plainly: two-hybrid library CCmax. The following applies: mean of both orientations.

The target in experiment [9] is T9, 4H605-AA.
T9 chain: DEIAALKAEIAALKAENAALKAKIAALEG
As to the kind of experiment: two-hybrid library CCmax. To be noted: mean of both orientations.

For experiment [10], the target named is T10, 4H3627-AA.
T10 chain: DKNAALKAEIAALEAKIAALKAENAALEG
Put plainly: two-hybrid library CCmax. To be noted: mean of both orientations.

In experiment [11] the target is T11, 4H717-AA.
T11 chain: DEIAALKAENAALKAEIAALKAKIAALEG
As to the kind of experiment: two-hybrid library CCmax. To be noted: mean of both orientations.

Experiment [12] concerns the target T12, 4H794-AA.
T12 chain: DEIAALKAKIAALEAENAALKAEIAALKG
As to the kind of experiment: two-hybrid library CCmax. To be noted: mean of both orientations.

The target in experiment [13] is T13, 4H2466-AA.
T13 chain: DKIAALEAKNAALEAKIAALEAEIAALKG
As to the kind of experiment: two-hybrid library CCmax. To be noted: mean of both orientations.

For experiment [14], the target named is T14, 4H429-AA.
T14 chain: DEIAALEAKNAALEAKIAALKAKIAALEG
As to the kind of experiment: two-hybrid library CCmax. To be noted: mean of both orientations.

Experiment [15] concerns the target T15, 4H2354-AA.
T15 chain: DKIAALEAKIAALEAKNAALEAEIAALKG
Put plainly: two-hybrid library CCmax. The following applies: mean of both orientations.

In experiment [16] the target is T16, 4H3921-AA.
T16 chain: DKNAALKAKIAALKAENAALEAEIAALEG
Put plainly: two-hybrid library CCmax. The following applies: mean of both orientations.

Experiment [17] addresses T17, 4H993-AA.
T17 chain: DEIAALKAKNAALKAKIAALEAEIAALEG
Put plainly: two-hybrid library CCmax. The following applies: mean of both orientations.

Experiment [18] addresses T18, 4H2642-AA.
T18 chain: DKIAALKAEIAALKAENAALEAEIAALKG
As to the kind of experiment: two-hybrid library CCmax. The following applies: mean of both orientations.

Experiment [19] deals with T19, 4H2754-AA.
T19 chain: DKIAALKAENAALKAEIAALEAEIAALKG
As to the kind of experiment: two-hybrid library CCmax. To be noted: mean of both orientations.

Experiment [20] addresses T20, 4H678-AA.
T20 chain: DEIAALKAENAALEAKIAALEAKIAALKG
As to the kind of experiment: two-hybrid library CCmax. To be noted: mean of both orientations.

Experiment [21] has as its target T21, 4H335-AA.
T21 chain: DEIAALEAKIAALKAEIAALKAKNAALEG
As to the kind of experiment: two-hybrid library CCmax. The following applies: mean of both orientations.

Experiment [22] has as its target T22, 4H3343-AA.
T22 chain: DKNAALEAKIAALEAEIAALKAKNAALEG
As to the kind of experiment: two-hybrid library CCmax. The following applies: mean of both orientations.

The target of experiment [23] is T23, 4H3606-AA.
T23 chain: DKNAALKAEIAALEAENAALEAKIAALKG
Put plainly: two-hybrid library CCmax. The following applies: mean of both orientations.

Experiment [24] concerns the target T24, 4H3655-AA.
T24 chain: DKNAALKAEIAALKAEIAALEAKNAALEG
Put plainly: two-hybrid library CCmax. The following applies: mean of both orientations.

Experiment [25] has as its target T25, 4H2617-AA.
T25 chain: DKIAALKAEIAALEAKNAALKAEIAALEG
Put plainly: two-hybrid library CCmax. The following applies: mean of both orientations.

Experiment [26] addresses T26, 4H234-AA.
T26 chain: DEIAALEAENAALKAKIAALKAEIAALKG
Put plainly: two-hybrid library CCmax. To be noted: mean of both orientations.

The target of experiment [27] is T27, 4H2949-AA.
T27 chain: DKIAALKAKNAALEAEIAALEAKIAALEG
As to the kind of experiment: two-hybrid library CCmax. To be noted: mean of both orientations.

The target of experiment [28] is T28, 4H2575-AA.
T28 chain: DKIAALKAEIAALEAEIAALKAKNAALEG
Put plainly: two-hybrid library CCmax. To be noted: mean of both orientations.

Experiment [29] has as its target T29, 4H881-AA.
T29 chain: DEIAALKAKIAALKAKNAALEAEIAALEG
Put plainly: two-hybrid library CCmax. The following applies: mean of both orientations.

Experiment [30] deals with T30, 4H2837-AA.
T30 chain: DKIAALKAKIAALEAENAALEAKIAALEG
Put plainly: two-hybrid library CCmax. To be noted: mean of both orientations.

Experiment [31] concerns the target T31, 4H2729-AA.
T31 chain: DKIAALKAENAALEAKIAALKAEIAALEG
Put plainly: two-hybrid library CCmax. The following applies: mean of both orientations.

Experiment [32] deals with T32, 4H3112-AA.
T32 chain: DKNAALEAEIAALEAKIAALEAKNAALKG
As to the kind of experiment: two-hybrid library CCmax. To be noted: mean of both orientations.

Experiment [33] has as its target T33, 4H3844-AA.
T33 chain: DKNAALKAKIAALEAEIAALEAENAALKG
As to the kind of experiment: two-hybrid library CCmax. The following applies: mean of both orientations.

Experiment [34] addresses T34, 4H2190-AA.
T34 chain: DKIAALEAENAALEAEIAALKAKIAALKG
Put plainly: two-hybrid library CCmax.

For experiment [35], the target named is T35, 4H454-AA.
T35 chain: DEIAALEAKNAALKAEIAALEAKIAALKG
As to the kind of experiment: two-hybrid library CCmax. The following applies: mean of both orientations.

Experiment [36] has as its target T36, 4H2505-AA.
T36 chain: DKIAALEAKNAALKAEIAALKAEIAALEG
Put plainly: two-hybrid library CCmax. To be noted: mean of both orientations.

The target in experiment [37] is T37, 4H3427-AA.
T37 chain: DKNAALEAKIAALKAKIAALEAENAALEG
As to the kind of experiment: two-hybrid library CCmax. The following applies: mean of both orientations.

Experiment [38] has as its target T38, 4H2277-AA.
T38 chain: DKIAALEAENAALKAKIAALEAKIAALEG
As to the kind of experiment: two-hybrid library CCmax. To be noted: mean of both orientations.

Experiment [39] concerns the target T39, 4H566-AA.
T39 chain: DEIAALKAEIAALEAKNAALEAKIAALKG
As to the kind of experiment: two-hybrid library CCmax. To be noted: mean of both orientations.

The target in experiment [40] is T40, P10-AA.
T40 chain: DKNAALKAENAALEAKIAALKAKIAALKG
Put plainly: two-hybrid library CCmax. The following applies: mean of both orientations.

Experiment [41] addresses T41, O8-AA.
T41 chain: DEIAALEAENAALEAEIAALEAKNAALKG
As to the kind of experiment: two-hybrid library CCmax.

For experiment [42], the target named is T42, P9-AA.
T42 chain: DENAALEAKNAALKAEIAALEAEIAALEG
Put plainly: two-hybrid library CCmax. To be noted: mean of both orientations.

Experiment [43] addresses T43, O8-bS.
T43 chain: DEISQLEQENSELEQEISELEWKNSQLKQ
As to the kind of experiment: two-hybrid library CCNG1.

The target in experiment [44] is T44, O9-bS.
T44 chain: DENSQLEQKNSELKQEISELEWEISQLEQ
As to the kind of experiment: two-hybrid library CCNG1.

In experiment [45] the target is T45, O6-bS.
T45 chain: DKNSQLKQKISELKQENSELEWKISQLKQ
As to the kind of experiment: two-hybrid library CCNG1.

The target of experiment [46] is T46, O7-bS.
T46 chain: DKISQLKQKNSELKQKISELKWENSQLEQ
Put plainly: two-hybrid library CCNG1.

B1: 4H2190-AA (peptide)
chain: DKIAALEAENAALEAEIAALKAKIAALKG
As for B1, the interaction score was 0.437 in experiment [1]; 2.09 in [2]; 0.996 in experiment [3]; 0.596 in [4]; -1.55 in [5]; -1.51 in [6]. Further, the interaction score in experiment [7] is 1.04; in experiment [8], -0.0631; in [9], -1.55; in experiment [10], -0.558; in experiment [11], 1.16; in [12], -0.883. In addition, the interaction score in experiment [13] is 0.489; in [14] it was 1.95; in experiment [15] it was -0.303; in experiment [16], -1.21; in experiment [17] it was 2.17; in experiment [18], -0.738. Besides, the interaction score is 2.3 in experiment [19]; -0.81 in experiment [20]; 0.22 in experiment [21]; -1.32 in [22]; -0.529 in [23]; 1.73 in experiment [24]. Moreover, the interaction score was 0.788 in [25]; 1.66 in experiment [26]; 2.07 in experiment [27]; -0.718 in experiment [28]; 0.176 in [29]; -1.55 in experiment [30]. The interaction score in experiment [31] is 2.26; in experiment [32], -0.916; in experiment [33], 0.147; in experiment [34], 2.19; in experiment [35], 1.72; in [36], 2.21. The figures for the interaction score in experiment [37], in experiment [38] and in experiment [39] were -1.15, 1.06 and 0.26, respectively.

B2: O8-AA (peptide)
chain: DEIAALEAENAALEAEIAALEAKNAALKG
As to B2, the interaction score in experiment [40] was -0.856; in experiment [41], -1.16; in [42], -1.26.

B3: O6-bS (peptide)
chain: DKNSQLKQKISELKQENSELEWKISQLKQ
Regarding B3, the interaction score in experiment [43] was -1.78; in experiment [44], -0.588; in experiment [45], -1.84; in experiment [46], -0.489.
